# Results reported in patent publication US20080015165A1, “NOVEL POLYPEPTIDE” (KYOWA HAKKO KOGYO CO., LTD., priority 1998, published 2008).
# B1: Fuc-TIX: human Fuc-TIX, 359 amino acids (SEQ ID NO:2), α1,3-fucosyltransferase expressed from pAMo-FT9 in Namalwa cells (protein)
# chain: MTSTSKGILRPFLIVCIILGCFMACLLIYIKPTNSWIFSPMESASSVLKMKNFFSTKTDYFNETTILVWVWPFGQTFDLTSCQAMFNIQGCHLTTDRSLYNKSHAVLIHHRDISWDLTNLPQQARPPFQKWIWMNLESPTHTPQKSGIEHLFNLTLTYRRDSDIQVPYGFLTVSTNPFVFEVPSKEKLVCWVVSNWNPEHARVKYYNELSKSIEIHTYGQAFGEYVNDKNLIPTISACKFYLSFENSIHKDYITEKLYNAFLAGSVPVVLGPSRENYENYIPADSFIHVEDYNSPSELAKYLKEVDKNNKLYLSYFNWRKDFTVNLPRFWESHACLACDHVKRHQEYKSVGNLEKWFWN
# modifications: human
# Tests used:
# [1] = Enzyme activity for a poly-N-acetyllactosamine sugar chain, Namalwa cell extract, HPLC; format: biochemical
# Excerpt: Using a poly-N-acetyllactosamine sugar chain, it was examined that to which GlcNAc in the sugar chains, human Fuc-TIX and 5 types of human α1,3-fucosyltransferase (Fuc-TIII, Fuc-TIV, Fuc-TV, Fuc-TVI, and Fuc-TVII) that had been cloned so far transferred fucose.
# Control plasmid (pAMo) and the human Fuc-TIX expression plasmid pAMo-FT9 were introduced into Namalwa cells according to the method shown in Example 1 (3), thereby obtaining stable transformants.
# Namalwa cells expressing each of the other 5 types of human α1,3-fucosyltransferases (Fuc-TIII, Fuc-TIV, Fuc-TV, Fuc-TVI, and Fuc-TVII) were obtained according to the previous report (Glycoconjugate J., 13, 802-812, Biochem. Biophys. Res. Commun., 237, 131-137, 1997).
# The resultant transformants (about 1×10^7) were collected in microtubes (1.5 ml, manufactured by Eppendolf), followed by centrifugation at 550×g for 7 minutes to collect the cells.
# The collected cells were washed with 0.9 ml of PBS. The washed cells were suspended in 100 μl of a solution which consisted of 20 mM HEPES (pH 7.2) and 1% TrironX-100, then allowed to stand at 4° C. for 10 minutes. Subsequently the cells were disrupted using a ultrasonicator (Bioruptor; manufactured by COSMO BIO CO., LTD.)
# After disruption of the cells, each supernatant was obtained by centrifugation at 550×g for 7 minutes and used as an enzyme sample. A poly-N-acetyllactosamine sugar chain (Galβ1-4GlcNAcβ1-3Galβ1-4GlcNAcβ1-3Galβ1-4GlcNAc) consisting of 6 sugars was fluorescently labeled with 2-aminobenzamide to make a sugar chain (Galβ1-4GlcNAcβ1-3Galβ1-4GlcNAcβ1-3Galβ1-4GlcNAc-2AB: abbreviated as S in FIGS. 13 and 15, and table 3), which was used as a substrate
# Florescent labeling was performed using a Signal™ 2-AB glycan labeling kit (manufactured by Oxford GlycoScience). A poly-N-acetyllactosamine sugar chain (Galβ1-4GlcNAcβ1-3Galβ1-4GlcNAcβ1-3Galβ1-4GlcNAc) was prepared according to WO98/03524.
# (§1) Samples were allowed to react in 20 μl of an assay solution [50 mM cacodylate (pH 6.8), 5 mM ATP, 10 mM L-fucose, 75 μM […] (manufactured by SIGMA), 25 mM MnCl2, 15 μM fluorescently labeled sugar chain substrate, 6 μl of the cell lysate above] at 37° C. for 2 hours, followed by treatment at 100° C. for 3 minutes to stop the reaction. Next 200 μl of water was added to the samples, and the supernatant was obtained by centrifugation at 10,000×g for 5 minutes. Using an aliquot of the supernatant (10 μl), products were analyzed by HPLC under the following conditions.
# (§2) HPLC: • Column—TSK-gel ODS-80TsQA column (4.6×250 mm; TOSOH CORPORATION) • Eluate—0.02 M ammonium acetate (pH 4.0) containing 7% methanol • Elution temperature—50° C. • Flow rate—1.0 ml/min. • Detection—Fluorescence spectrum photometer FB-920 (manufactured by JASCO Corporation) (excitation wavelength: 330 nm, radiation wavelength: 420 nm)
# [2] = Enzyme activity for monofucosylpoly-N-acetyllactosamine sugar chain P1, Namalwa cell extract, HPLC; format: biochemical; settings: relative activity with the activity for P1 assumed to be 1
# Description: as §1, §2
# The enzymatic activities of Fuc-TIV, Fuc-TVI and Fuc-TIX were measured using the product P1 or P2 as a substrate in addition to the above substrate (S).
# COS-1 cells = experiment: Indirect fluorescent antibody staining (FACS) of transformed COS-1 cells; format: cell-based, African green monkey; settings: antibody 7LE; FIG. 3
# Description: Further, COS-1 cells, into which a control plasmid (pCDM8), a mouse Fuc-TIX expression plasmid (pCDM8-mFT9), or a human Fuc-TIII expression plasmid (pCDM8-Le) had been introduced, were prepared. The cells were subjected to indirect fluorescent antibody staining using the anti-Lewis a sugar chain antibody (7LE, manufactured by […] CORPORATION) (see FIG. 3).
# Each α1,3-fucosyltransferase expression plasmid (15 μg) was introduced into 1×10^7 COS-1 cells.
# This introduction was performed by electroporation method using a gene pulser (manufactured by Bio-Rad) according to the Bio-Rad's instructional manual attached thereto. At this time, 1 μg of a luciferase expression vector, which was constructed by inserting β-actin promoter into a Hind III site of a vector pSVOA/L [Experimental Medicine, 7, 96, (1989)] was co-introduced as an index of gene transfer efficiency.
# Namalwa cells = experiment: Indirect fluorescent antibody staining of Namalwa cells expressing human Fuc-TIV or Fuc-TIX (VIM-2 and Le^x sugar chains); format: cell-based
# Description: Using an anti-VIM-2 sugar chain antibody (anti-CDw65 antibody, manufactured by Serotec) and anti-Le^x sugar chain antibodies [73-30 (manufactured by […] CORPORATION) and anti-CD15 antibody (C3D-1, manufactured by Dako)], indirect fluorescent antibody staining was performed for Namalwa cells expressing human Fuc-TIV or human Fuc-TIX, and for Namalwa cells transfected with the control vector pAMo, which were constructed in Example 9. The VIM-2 sugar chain is a sugar chain having the structure consisting of Galβ1-4GlcNAcβ1-3Galβ1-4(Fucα1-3)GlcNAc on non-reduced terminal of a sugar chain.
# Indirect fluorescent antibody staining was performed according to the method described in Example 1 (3). Anti-VIM-2 sugar chain antibodies, 73-30 and C3D-1 were used after dilution at 1:50, 1:100, and 1:50.
# [3] = relative activity with the activity for P1 assumed to be 1
# [4] = substrate S, relative value, total of products P1, P2 and P3 by each enzyme = 100%
molecule,measurement,setting,value
B1,"Enzymatic activity, substrate S, product P1",[1]; [3],7.2
same,"Enzymatic activity, substrate S, product P2",[1]; [3],1.6
same,"Enzymatic activity, substrate S, product P3",[1]; [3],0.7
same,Production (%) P1,[1]; [4],82.7%
same,Production (%) P2,[1]; [4],13.4%
same,Production (%) P3,[1]; [4],3.9%
same,"Enzymatic activity, substrate P1, product P3",[2],1.0
same,synthesis of the Lewis a sugar chain in transformed cells,COS-1 cells,cannot synthesize
same,reactivity against the anti-Le^x sugar chain antibodies [73-30 and anti-CD15 antibody],Namalwa cells; Namalwa cells expressing Fuc-TIX compared with those expressing Fuc-TIV,greater
same,reactivity against the anti-VIM-2 sugar chain antibody,Namalwa cells; compared to Namalwa cells transfected with pAMo,slight increase
